Test results: patent publication US20110256132A1 (published 2011)
Where a chain is given by its changes, count along the chain named. In names and notes the source's numbering stands. Read-outs that look alike come from different tables or passages of the source. Blank lines part the entries; values can stand above or below the binder they belong to.

Experiments:
[1] = target: T1, mature myostatin (recombinant, dimeric) (mouse polyprotein used for in-house …, UniProt O08689 268-376); test: cell-based or functional assay
T1 sequence: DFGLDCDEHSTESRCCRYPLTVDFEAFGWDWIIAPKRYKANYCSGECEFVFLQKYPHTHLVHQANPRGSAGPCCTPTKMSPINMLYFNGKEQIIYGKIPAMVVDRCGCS

[2] = target: T1, mature myostatin (recombinant, dimeric); test: cell-based or functional assay; remark: listed apart in the source
[3] = target: T1, mature myostatin (recombinant, dimeric); test: cell-based or functional assay; remark: listed apart in the source
[4] = target: T1, mature myostatin (recombinant, dimeric); test: FORTEbio bio-layer interferometry, myostatin amine-coupled to sensor, 20 nM antibody, 1:1 fit
Description: The affinity of 10B3 mouse parental and H2L2-C91S developability variant for recombinant myostatin was also assessed by FORTEbio™ (bio-layer inferometry) analysis. FORTEbio™ analyses were carried out by antigen capture. Myostatin (in-house, see above at 1.1) was coupled onto amine reactive biosensors by primary amine coupling in accordance with the manufacturer's instructions. Antibodies were then captured onto this surface at 20 nM concentrations. The data was analysed using the evaluation software inherent in the machine and the data analysed using 1:1 fit (see Table 16). Due to the limited number of myostatin molecules bound to the sensor surface and the low antibody concentration, avidity effects are reduced, enabling a more accurate measure of affinity compared to the Biacore analyses. […] However, due to the nature of the binding of the antibodies to myostatin, these values are mainly used for ranking purposes, and the affinity may not be representative of the affinity in vivo.

[5] = target: T1, mature myostatin (recombinant, dimeric); test: BIAcore, low density myostatin surface, methods as in 4.3
[6] = target: T1, mature myostatin (recombinant, dimeric); test: myostatin binding ELISA after 48 h at 37 C in 1% ammonium bicarbonate pH 9.0 (Examples 5.2, 4.2), A490
[7] = target: T1, mature myostatin (recombinant, dimeric); test: myostatin binding ELISA, 10 ng/well recombinant myostatin coated, CHOK1 supernatants, anti-human kappa HRP, A490 (Examples 5.1, 4.2)
[8] = target: T1, mature myostatin (recombinant, dimeric); test: myostatin capture ELISA: plate coated with polyclonal anti-myostatin AF788, myostatin 1 µg/ml captured, purified antibody titrated, anti-human kappa HRP, A490 (Example 6.7)
Description: A 96-well ELISA plate was coated at 4° C. overnight with 2.5 μg/ml polyclonal Antibody to Myostatin (R&D Systems AF788). This plate was then washed 3-times in wash buffer (PBS, 0.1% Tween-20) and blocked for 1 hour at room temperature with block solution (PBS, 0.1% Tween-20+1% bovine serum albumin [BSA]). Then, myostatin was added at 1 μg/ml in block buffer during 1 hour followed by 3-times in wash buffer. Antibodies were then titrated out to a suitable concentration range (approximately 10 to 0.01 μg/ml), added to the plate and incubated for 1 hour at room temperature. The plate was then washed 3-times in wash buffer. An anti-human kappa light chain HRP-conjugated antibody (Sigma A7164, used according to the manufacturer's instructions) was used to detect binding of humanized or chimeric antibodies, such as 10B3 chimera (HcLc) or H0L0. The plate was then washed 3-times in wash buffer and developed with an OPD substrate (according to the manufacturer's instructions) and read at 490 nm on a plate reader.
The experiment is illustrated in FIG. 21 where H2L2-C91S, H0L0, HcLc (10B3 chimera) and a negative control monoclonal antibody were used as control antibodies. All eleven CDRH3 variant antibodies bound to recombinant myostatin in this ELISA. […]

[9] = target: T1, mature myostatin (recombinant, dimeric); test: BIAcore, high density myostatin surface, antibody analyte, 1:1 model (poor fits)
Description: (§1) Purified H0L0, H1L2 and H2L2 bound recombinant myostatin by BIAcore™ Recombinant myostatin was immobilised at three different densities (low, medium and high, to give R-max values of approximately 35, 120 and 350 RU's respectively) onto a BIAcore™ chip. Antibodies were passed over at 256, 64, 16, 4 and 1 nM. 0 nM antibody was used for double referencing and data was fitted to the 1:1 model.

[10] = target: T1, mature myostatin (recombinant, dimeric); test: myostatin binding ELISA with purified antibody, 10 ng/well recombinant myostatin coated, anti-human kappa HRP, A490 (Examples 4.1, 4.2); the text says the CHOK1 material was hard to quantify
Description: (§2) The myostatin binding ELISA was carried out approximately according to this protocol. A 96-well ELISA plate was coated at 4° C. overnight with 10 ng/well recombinant myostatin. This plate was then washed 3-times in wash buffer (PBS, 0.1% Tween-20). The wells were blocked for 1 hour at room temperature with block solution (PBS, 0.1% Tween-20+1% bovine serum albumin [BSA]), before washing 3-times in wash buffer. Antibodies were then titrated out to a suitable concentration range (approximately 100 to 0.001 μg/ml), added to the plate and incubated for 1 hour at room temperature. The plate was then washed 3-times in wash buffer. An anti-mouse IgG HRP-conjugated antibody (P0260 by Dako, this reagent was used according to the manufacturer's instructions) was used to detect binding of mouse antibodies, such as 10B3. An anti-human kappa light chain HRP-conjugated antibody (A7164 by Sigma Aldridge, this reagent was used according to the manufacturer's instructions) was used to detect binding of humanized or chimeric antibodies, such as 10B3 chimera or H0L0. The plate was then washed 3-times in wash buffer and developed with an OPD substrate (from Sigma, used according to the manufacturer's instructions) and read at 490 nm on a plate reader.

[11] = target: T1, mature myostatin (recombinant, dimeric); test: myostatin binding ELISA with purified antibody, 10 ng/well recombinant myostatin coated, anti-human kappa HRP, A490 (Examples 4.1, 4.2)
Description: as §2

[12] = target: T1, mature myostatin (recombinant, dimeric); test: BIAcore, medium density myostatin surface, antibody analyte, 1:1 model (poor fits)
Description: as §1

[13] = target: T1, mature myostatin (recombinant, dimeric); test: BIAcore, low density myostatin surface, antibody analyte, 1:1 model
Description: as §1

[14] = target: T1, mature myostatin (recombinant, dimeric); test: cell-based or functional assay; remark: listed apart in the source
[15] = target: T1, mature myostatin (recombinant, dimeric); test: myostatin binding ELISA after 48 h at 37 C in PBS (Examples 5.2, 4.2), A490
[16] = target: T1, mature myostatin (recombinant, dimeric); test: myostatin binding ELISA after 48 h at 37 C in 1% ammonium bicarbonate pH 9.0 (Examples 5.2, 4.2), A490; remark: listed apart in the source
[17] = target: T1, mature myostatin (recombinant, dimeric); test: myostatin binding ELISA, CHOK1 supernatants
Description: as §2, with “An anti-human kappa light chain HRP-conjugated antibody (A7164 by Sigma Aldridge, this reagent was used according to the manufacturer's instructions) was used to detect binding of humanized or chimeric antibodies, such as 10B3 chimera or H0L0.” left out
The plasmids for each antibody were transfected into CHOK1 cells in duplicate and in two separate experiments. Antibodies produced in the CHOK1 cell supernatant were analysed for activity in the myostatin binding ELISA. […]

- Mean IC50, A204 in vitro activity assay [1]: 1.24 nM
B1: H2L2-C91S_F100G_Y Fc Disabled (antibody, human IgG1, kappa)
heavy: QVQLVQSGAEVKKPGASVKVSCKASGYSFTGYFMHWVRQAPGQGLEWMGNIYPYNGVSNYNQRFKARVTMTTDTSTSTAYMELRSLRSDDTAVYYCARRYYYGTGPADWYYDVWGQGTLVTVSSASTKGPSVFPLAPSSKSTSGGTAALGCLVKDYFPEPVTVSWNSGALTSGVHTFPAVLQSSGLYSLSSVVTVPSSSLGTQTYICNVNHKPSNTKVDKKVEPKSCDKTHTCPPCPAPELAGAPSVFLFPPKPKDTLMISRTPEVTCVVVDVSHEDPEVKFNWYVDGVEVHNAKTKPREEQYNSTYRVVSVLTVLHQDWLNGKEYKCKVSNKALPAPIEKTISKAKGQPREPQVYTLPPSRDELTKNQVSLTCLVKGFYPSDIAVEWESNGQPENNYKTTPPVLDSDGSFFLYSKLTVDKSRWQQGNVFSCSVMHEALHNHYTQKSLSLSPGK
light: DIQMTQSPSSLSASVGDRVTITCKASQDINSYLSWFQQKPGKAPKSLIYRANRLVDGVPSKFSGSGSGTDYTLTISSLQPEDFATYYCLQSDEFPLTFGQGTKLEIKRTVAAPSVFIFPPSDEQLKSGTASVVCLLNNFYPREAKVQWKVDNALQSGNSQESVTEQDSKDSTYSLSSTLTLSKADYEKHKVYACEVTHQGLSSPVTKSFNRGEC

- Mean IC50, A204 in vitro activity assay [2]: 9.26 nM
- Mean IC50, A204 in vitro activity assay (5 nM myostatin) [3]: 5.14 nM
- Kd [4]: 0.073 nM
- koff [4]: 2.99e-05 s⁻¹
- kon [4]: 410000 M⁻¹ s⁻¹
- Kd [5]: 16.6 nM
- EC50 (read off the curve) [6]: ~1 nM
- Mean IC50, A204 in vitro activity assay [1]: 4.08 nM
B2: H2L2 C91S (H2L2-C91S) (antibody, human IgG1, kappa, V domains shown)
VH: QVQLVQSGAEVKKPGASVKVSCKASGYSFTGYFMHWVRQAPGQGLEWMGNIYPYNGVSNYNQRFKARVTMTTDTSTSTAYMELRSLRSDDTAVYYCARRYYYGTGPADWYFDVWGQGTLVTVSS
VL: DIQMTQSPSSLSASVGDRVTITCKASQDINSYLSWFQQKPGKAPKSLIYRANRLVDGVPSKFSGSGSGTDYTLTISSLQPEDFATYYCLQSDEFPLTFGQGTKLEIKR
notes: Humanised, human IgG1/kappa; also called base molecule; base H2L2-C91S

- binding result [7]: no binding (tested: about 33 nM)
B3: H2L2 N54D (H2L2-N54D) (antibody, human IgG1, kappa, V domains shown)
VH: B2 VH with N55D
VL: B2 VL with S91C

- binding result [7]: no binding
B4: H2L2 N54D & C91S (H2L2-N54D-C91S) (antibody, human IgG1, kappa, V domains shown)
VH: B2 VH with N55D
VL: B2 VL

- binding result [8]: binds
B5: H2L2-C91S_W100E_F (antibody, human IgG1, kappa, V domains shown)
VH: B2 VH with W109F
VL: B2 VL

- Mean IC50, A204 in vitro activity assay [2]: 10.1 nM
- Kd [9]: 2.31 nM
- koff [9]: 0.000338 s⁻¹
- kon [9]: 146000 M⁻¹ s⁻¹
- Kd [5]: 22.7 nM
- EC50 (read off the curve) [10]: ~0.3 mg/L
- EC50 (read off the curve) [11]: ~0.1 mg/L
- Kd [12]: 3.61 nM
- koff [12]: 0.00093 s⁻¹
- kon [12]: 258000 M⁻¹ s⁻¹
- Kd [13]: 8.26 nM
- koff [13]: 0.00662 s⁻¹
- kon [13]: 801000 M⁻¹ s⁻¹
- Mean IC50, A204 in vitro activity assay [14]: 10.2 nM
B6: H0L0 (antibody, human IgG1, kappa)
heavy: not shown
light: B1 light with Y71F, S91C
notes: Humanised, human IgG1 wild type/kappa

- Mean IC50, A204 in vitro activity assay [2]: 10.1 nM
- Kd [9]: 1.47 nM
- koff [9]: 0.000216 s⁻¹
- kon [9]: 147000 M⁻¹ s⁻¹
- EC50 (read off the curve) [15]: ~0.7 nM
- Kd [5]: 12 nM
- EC50 (read off the curve) [10]: ~0.1 mg/L
- EC50 (read off the curve) [16]: ~0.6 nM
- EC50 (read off the curve) [11]: ~0.09 mg/L
- Kd [12]: 3 nM
- koff [12]: 0.000737 s⁻¹
- kon [12]: 246000 M⁻¹ s⁻¹
- Kd [13]: 8.37 nM
- koff [13]: 0.00268 s⁻¹
- kon [13]: 321000 M⁻¹ s⁻¹
- Mean IC50, A204 in vitro activity assay [14]: 8.6 nM
B7: H2L2 (antibody, human IgG1, kappa, V domains shown)
VH: B2 VH
VL: B2 VL with S91C
notes: as for B6

- binding result [8]: binds
B8: H2L2-C91S_F100G_N (antibody, human IgG1, kappa, V domains shown)
VH: B2 VH with F111N
VL: B2 VL

- binding result [17]: no binding
B9: 10B3 chimera N54D (HCLC-N54D) (antibody, human IgG1, kappa, V domains shown)
VH: EVQLQQSGPELVKPGASVKISCKASGYSFTGYFMHWVKQSHGNILDWIGNIYPYDGVSNYNQRFKAKATLTVDKSSSTAYMELRSLTSEDSAVYYCARRYYYGTGPADWYFDVWGTGTLVTVSS
VL: DIKMTQSPSSMYASLRERVTITCKASQDINSYLSWFQQKPGKSPKTLIYRANRLVDGVPSRFSGSGSGQDYSLTISSLEYEDMGIYYCLQCDEFPLTFGAGTKLELKR

- binding result [17]: no binding
B10: 10B3 chimera N54D & C91S (HCLC-N54D-C91S) (antibody, human IgG1, kappa, V domains shown)
VH: B9 VH
VL: B9 VL with C91S
